The results in this text go back to patent US11053476B2, “Generation of cancer stem cells and use thereof” (EXOSTEM BIOTEC LTD., priority 2016, dated 2021).

Holding throughout (assay type): cell-based
The test system of test [1] is CSCs generated from differentiated cancer cells. Put plainly: Self-renewal of CSCs (secondary tumorspheres) generated from differentiated cancer cells, factor added to basic protocol. How it is done:
(§1) In order to generate CSCs in vitro, both primary differentiated cancer cells (primary glioma cells) as well as cells from a cancer cell line (U87 cells) were obtained. Glioma cells and U87 cells were trypsinized, and washed three times with medium +10% FCS. The cells were then resuspended in medium that was brought to a pH of 6.0 and were placed on a rotator and incubated for 45-90 minutes. The cells were then incubated in medium supplemented with EGF and FGF. The cells were optionally kept in mild hypoxic conditions (2-3% oxygen) during this second incubation and were then plated on bacterial plates.
(§2) Tumorspheres formed on these plates within one week and were removed from the cells that had attached to the dish. The tumorspheres were disaggregated and the cells were re-plated at limiting dilution to generate secondary spheroids. The secondary tumorspheres were then characterized for CSC specific markers, the ability to self-renew and the ability to generate tumors that recapitulate the parental tumors.
Knowing that the basic protocol for generating CSCs (acid, EGF/FGF and two rounds of sphere generation) was successful; several modifications to the protocol were examined. […]

For another test, the system named is Sox2. As to the kind of experiment: Sox2 expression in generated CSCs, factor added to basic protocol. The method, then: as §1, §2
Knowing that the basic protocol for generating CSCs (acid, EGF/FGF and two rounds of sphere generation) was successful; several modifications to the protocol were examined. […] Second, a wide range of factors were found, that when supplemented to the EGF and FGF containing media, increased the efficacy of the protocol, either by increasing the number of CSCs produced or by increasing their stemness.

The subject of test [2] is differentiated cancer cells. Put plainly: Efficacy and penetrance of dedifferentiation with transcription and secreted factors. The following applies: expression in the cells or in their media during second incubation or tumorsphere formation. The method, then:
as §1, §2
Lastly, several transcription factors and secreted factors that are known to enhance stemness or cancer progression were introduced into the differentiated cells during the second incubation or during tumorsphere formation.

B1: Lin-28: overexpressed factor, called miR in b196 and protein in b22 (protein, UniProt Q9H9Z2 2-209, looked up)
Protein lin-28 homolog A: GSVSNQQFAGGCAKAAEEAPEEAPEDAARAADEPQLLHGAGICKWFNVRMGFGFLSMTARAGVALDPPVDVFVHQSKLHMEGFRSLKEGEAVEFTFKKSAKGLESIRVTGPGGVFCIGSERRPKGKSMQKRRSKGDRCYNCGGLDHHAKECKLPPQPKKCHFCQSISHMVASCPLKAQQGPSAQGKPTYFREEEEEIHSPTLLPEAQN
In the case of B1, the “self-renewal over the basic protocol” value in test [1] (overexpressed miR or polynucleotide inhibitor, FIG. 7A) is recorded as “improved”. Also, the “Sox2 expression over the basic protocol” value in the test on Sox2 (overexpressed miR or polynucleotide inhibitor, FIG. 7B) was “improved”.

B2: IL10: anti-inflammatory cytokine (protein, UniProt P22301 19-178, looked up)
Interleukin-10: SPGQGTQSENSCTHFPGNLPNMLRDLRDAFSRVKTFFQMKDQLDNLLLKESLLEDFKGYLGCQALSEMIQFYLEEVMPQAENQDPDIKAHVNSLGENLKTLRLRLRRCHRFLPCENKSKAVEQVKNAFNKLQEKGIYKAMSEFDIFINYIEAYMTMKIRN
B2: the “effect on rate of self-renewal” value in test [1] (cytokine supplemented to second incubation media, FIG. 4A) is on record as “no effect”. In addition, the “effect on Sox2 expression” value in the test with Sox2 (cytokine supplemented to second incubation media, FIG. 4B) is on record as “no effect”.

B3: CEBP/B: transcription or secreted factor expressed in the cells or in their media (protein, UniProt P17676 1-345, looked up)
CCAAT/enhancer-binding …: MQRLVAWDPACLPLPPPPPAFKSMEVANFYYEADCLAAAYGGKAAPAAPPAARPGPRPPAGELGSIGDHERAIDFSPYLEPLGAPQAPAPATATDTFEAAPPAPAPAPASSGQHHDFLSDLFSDDYGGKNCKKPAEYGYVSLGRLGAAKGALHPGCFAPLHPPPPPPPPPAELKAEPGFEPADCKRKEEAGAPGGGAGMAAGFPYALRAYLGYQAVPSGSSGSLSTSSSSSPPGTPSPADAKAPPTACYAGAAPAPSQVKSKAKKTVDKHSDEYKIRRERNNIAVRKSRDKAKMRNLETQHKVLELTAENERLQKKVEQLSRELSTLRNLFKQLPEPLLASSGHC
For the molecule B3, in test [2], the “effect on dedifferentiation brought about by the standard protocol” value is “increase the efficacy and penetrance of the dedifferentiation”.

B4: PKC epsilon: protein kinase C epsilon; activators or overexpression (protein, UniProt Q02156 1-737, looked up)
Protein kinase C epsilon type: MVVFNGLLKIKICEAVSLKPTAWSLRHAVGPRPQTFLLDPYIALNVDDSRIGQTATKQKTNSPAWHDEFVTDVCNGRKIELAVFHDAPIGYDDFVANCTIQFEELLQNGSRHFEDWIDLEPEGRVYVIIDLSGSSGEAPKDNEERVFRERMRPRKRQGAVRRRVHQVNGHKFMATYLRQPTYCSHCRDFIWGVIGKQGYQCQVCTCVVHKRCHELIITKCAGLKKQETPDQVGSQRFSVNMPHKFGIHNYKVPTFCDHCGSLLWGLLRQGLQCKVCKMNVHRRCETNVAPNCGVDARGIAKVLADLGVTPDKITNSGQRRKKLIAGAESPQPASGSSPSEEDRSKSAPTSPCDQEIKELENNIRKALSFDNRGEEHRAASSPDGQLMSPGENGEVRQGQAKRLGLDEFNFIKVLGKGSFGKVMLAELKGKDEVYAVKVLKKDVILQDDDVDCTMTEKRILALARKHPYLTQLYCCFQTKDRLFFVMEYVNGGDLMFQIQRSRKFDEPRSRFYAAEVTSALMFLHQHGVIYRDLKLDNILLDAEGHCKLADFGMCKEGILNGVTTTTFCGTPDYIAPEILQELEYGPSVDWWALGVLMYEMMAGQPPFEADNEDDLFESILHDDVLYPVWLSKEAVSILKAFMTKNPHKRLGCVASQNGEDAIKQHPFFKEIDWVLLEQKKIKPPFKPRIKTKRDVNNFDQDFTREEPVLTLVDEAIVKQINQEEFKGFSYFGEDLMP
For B4, in the test on Sox2 (PKC activation, FIG. 6B), the “effect on Sox2 expression” value is “increase Sox2 expression” and the “effectiveness on Sox2 expression compared with PMA” value is given as “more effective that PMA”.

B5: WNT5A: transcription or secreted factor expressed in the cells or in their media (protein, UniProt P41221 62-380, looked up)
Protein Wnt-5a: IIGAQPLCSQLAGLSQGQKKLCHLYQDHMQYIGEGAKTGIKECQYQFRHRRWNCSTVDNTSVFGRVMQIGSRETAFTYAVSAAGVVNAMSRACREGELSTCGCSRAARPKDLPRDWLWGGCGDNIDYGYRFAKEFVDARERERIHAKGSYESARILMNLHNNEAGRRTVYNLADVACKCHGVSGSCSLKTCWLQLADFRKVGDALKEKYDSAAAMRLNSRGKLVQVNSRFNSPTTQDLVYIDPSPDYCVRNESTGSLGTQGRLCNKTSEGMDGCELMCCGRGYDQFKTVQTERCHCKFHWCCYVKCKKCTEIVDQFVCK
Turning to B5, the “effect on dedifferentiation brought about by the standard protocol” value in test [2] was “increase the efficacy and penetrance of the dedifferentiation”.

B6: COX2: transcription or secreted factor expressed in the cells or in their media (protein, UniProt P35354 18-604, looked up)
Prostaglandin G/H synthase 2: ANPCCSHPCQNRGVCMSVGFDQYKCDCTRTGFYGENCSTPEFLTRIKLFLKPTPNTVHYILTHFKGFWNVVNNIPFLRNAIMSYVLTSRSHLIDSPPTYNADYGYKSWEAFSNLSYYTRALPPVPDDCPTPLGVKGKKQLPDSNEIVEKLLLRRKFIPDPQGSNMMFAFFAQHFTHQFFKTDHKRGPAFTNGLGHGVDLNHIYGETLARQRKLRLFKDGKMKYQIIDGEMYPPTVKDTQAEMIYPPQVPEHLRFAVGQEVFGLVPGLMMYATIWLREHNRVCDVLKQEHPEWGDEQLFQTSRLILIGETIKIVIEDYVQHLSGYHFKLKFDPELLFNKQFQYQNRIAAEFNTLYHWHPLLPDTFQIHDQKYNYQQFIYNNSILLEHGITQFVESFTRQIAGRVAGGRNVPPAVQKVSQASIDQSRQMKYQSFNEYRKRFMLKPYESFEELTGEKEMSAELEALYGDIDAVELYPALLVEKPRPDAIFGETMVEVGAPFSLKGLMGNVICSPAYWKPSTFGGEVGFQIINTASIQSLICNNVKGCPFTSFSVPDPELIKTVTINASSSRSGLDDINPTVLLKERSTEL
Consider B6, for which the “effect on dedifferentiation brought about by the standard protocol” value in test [2] is “increase the efficacy and penetrance of the dedifferentiation”.

B7: RUNX2: transcription or secreted factor expressed in the cells or in their media (protein, UniProt Q13950 1-521, looked up)
Runt-related transcription …: MASNSLFSTVTPCQQNFFWDPSTSRRFSPPSSSLQPGKMSDVSPVVAAQQQQQQQQQQQQQQQQQQQQQQQEAAAAAAAAAAAAAAAAAVPRLRPPHDNRTMVEIIADHPAELVRTDSPNFLCSVLPSHWRCNKTLPVAFKVVALGEVPDGTVVTVMAGNDENYSAELRNASAVMKNQVARFNDLRFVGRSGRGKSFTLTITVFTNPPQVATYHRAIKVTVDGPREPRRHRQKLDDSKPSLFSDRLSDLGRIPHPSMRVGVPPQNPRPSLNSAPSPFNPQGQSQITDPRQAQSSPPWSYDQSYPSYLSQMTSPSIHSTTPLSSTRGTGLPAITDVPRRISDDDTATSDFCLWPSTLSKKSQAGASELGPFSDPRQFPSISSLTESRFSNPRMHYPATFTYTPPVTSGMSLGMSATTHYHTYLPPPYPGSSQSQSGPFQTSSTPYLYYGTSSGSYQFPMVPGGDRSPSRMLPPCTTTSNGSTLLNPNLPNQNDGVDADGSHSSSPTVLNSSGRMDESVWRPY
As to B7, the “effect on dedifferentiation brought about by the standard protocol” value in test [2] is “increase the efficacy and penetrance of the dedifferentiation”.
